Reference: article PMC10382582 (Cell Discovery, 2023)

Target: biotinylated SARS-CoV-2 prototype RBD (SARS-CoV-2 (prototype), UniProt P0DTC2, biotin (biotinylated; site not stated))
Test: BLI
Settings: both partners purified

B1: pan-sarbecovirus mAb S2H97 (antibody, V domains shown)
VH: QVRLVQSGAEVKKSGESLKISCKGSGYSFTSYWIGWVRQMPGKGLEWMGIIYPGDSDTRYSPSFQGQVTISADKSISTVYLQWSSLKASDTAMYYCARQWSHYTYDYYYWGQGTLVTISS
VL: QSVLTQPASVSGSPGQSITISCTGISSDVGGYNSVSWYQQHPGKAPKLMIYDVTNRPSGVSNRFSGSKSGNTASLTISGLQAEDEADYYCSSYTSSSTPPYVFGTGTKVSVL
B1: binds.
